Measurements reported in patent publication US20220062373A1 (published 2022).

T1: Endogenous murine CD206 on M2-polarized bone marrow-derived macrophages (mouse, UniProt Q61830 20-1456)
T1 construct: whole, on cells; also called endogenous CD206 in murine macrophages; CD206 of M2 BMDMs
T1 sequence (looked up): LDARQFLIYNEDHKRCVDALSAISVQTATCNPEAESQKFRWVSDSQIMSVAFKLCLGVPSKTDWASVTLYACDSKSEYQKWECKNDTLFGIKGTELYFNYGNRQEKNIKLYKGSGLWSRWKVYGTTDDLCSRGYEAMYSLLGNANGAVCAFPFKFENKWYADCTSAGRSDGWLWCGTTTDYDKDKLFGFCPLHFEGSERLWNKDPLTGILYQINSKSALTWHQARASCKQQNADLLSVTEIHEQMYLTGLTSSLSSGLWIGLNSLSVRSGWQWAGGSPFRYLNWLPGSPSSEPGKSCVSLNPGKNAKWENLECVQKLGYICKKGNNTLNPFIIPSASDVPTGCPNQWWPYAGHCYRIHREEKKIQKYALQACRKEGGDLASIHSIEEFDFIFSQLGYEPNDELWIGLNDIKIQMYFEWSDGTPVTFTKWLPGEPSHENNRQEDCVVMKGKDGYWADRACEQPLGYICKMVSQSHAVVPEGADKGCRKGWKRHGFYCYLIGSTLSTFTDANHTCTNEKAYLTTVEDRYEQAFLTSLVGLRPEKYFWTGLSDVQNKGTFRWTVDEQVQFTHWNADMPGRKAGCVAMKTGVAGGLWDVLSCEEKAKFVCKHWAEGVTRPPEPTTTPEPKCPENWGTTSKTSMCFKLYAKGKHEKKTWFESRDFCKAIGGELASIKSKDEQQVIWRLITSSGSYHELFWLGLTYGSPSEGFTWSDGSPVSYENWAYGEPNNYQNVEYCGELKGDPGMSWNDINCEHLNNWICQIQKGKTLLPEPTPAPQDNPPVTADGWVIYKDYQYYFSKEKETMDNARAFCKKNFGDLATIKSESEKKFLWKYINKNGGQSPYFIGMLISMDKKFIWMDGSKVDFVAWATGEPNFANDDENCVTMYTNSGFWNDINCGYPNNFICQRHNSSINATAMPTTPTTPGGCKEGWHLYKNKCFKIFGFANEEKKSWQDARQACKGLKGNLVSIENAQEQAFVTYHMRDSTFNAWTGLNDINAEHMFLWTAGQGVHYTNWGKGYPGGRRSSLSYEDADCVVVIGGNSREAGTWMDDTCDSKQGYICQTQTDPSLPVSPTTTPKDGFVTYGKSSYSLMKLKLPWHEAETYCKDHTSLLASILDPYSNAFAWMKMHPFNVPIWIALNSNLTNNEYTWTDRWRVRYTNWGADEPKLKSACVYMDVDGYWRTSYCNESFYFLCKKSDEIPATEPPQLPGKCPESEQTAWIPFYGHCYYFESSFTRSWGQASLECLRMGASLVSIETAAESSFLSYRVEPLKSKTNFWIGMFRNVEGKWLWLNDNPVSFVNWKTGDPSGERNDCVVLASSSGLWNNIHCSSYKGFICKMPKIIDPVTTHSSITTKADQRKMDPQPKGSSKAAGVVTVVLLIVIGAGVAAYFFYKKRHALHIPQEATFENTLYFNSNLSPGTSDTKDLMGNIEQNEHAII

B1: Recombinant human CD206 (MRC1/CD206) (receptor, UniProt P22897 19-1383, looked up)
chain: LLDTRQFLIYNEDHKRCVDAVSPSAVQTAACNQDAESQKFRWVSESQIMSVAFKLCLGVPSKTDWVAITLYACDSKSEFQKWECKNDTLLGIKGEDLFFNYGNRQEKNIMLYKGSGLWSRWKIYGTTDNLCSRGYEAMYTLLGNANGATCAFPFKFENKWYADCTSAGRSDGWLWCGTTTDYDTDKLFGYCPLKFEGSESLWNKDPLTSVSYQINSKSALTWHQARKSCQQQNAELLSITEIHEQTYLTGLTSSLTSGLWIGLNSLSFNSGWQWSDRSPFRYLNWLPGSPSAEPGKSCVSLNPGKNAKWENLECVQKLGYICKKGNTTLNSFVIPSESDVPTHCPSQWWPYAGHCYKIHRDEKKIQRDALTTCRKEGGDLTSIHTIEELDFIISQLGYEPNDELWIGLNDIKIQMYFEWSDGTPVTFTKWLRGEPSHENNRQEDCVVMKGKDGYWADRGCEWPLGYICKMKSRSQGPEIVEVEKGCRKGWKKHHFYCYMIGHTLSTFAEANQTCNNENAYLTTIEDRYEQAFLTSFVGLRPEKYFWTGLSDIQTKGTFQWTIEEEVRFTHWNSDMPGRKPGCVAMRTGIAGGLWDVLKCDEKAKFVCKHWAEGVTHPPKPTTTPEPKCPEDWGASSRTSLCFKLYAKGKHEKKTWFESRDFCRALGGDLASINNKEEQQTIWRLITASGSYHKLFWLGLTYGSPSEGFTWSDGSPVSYENWAYGEPNNYQNVEYCGELKGDPTMSWNDINCEHLNNWICQIQKGQTPKPEPTPAPQDNPPVTEDGWVIYKDYQYYFSKEKETMDNARAFCKRNFGDLVSIQSESEKKFLWKYVNRNDAQSAYFIGLLISLDKKFAWMDGSKVDYVSWATGEPNFANEDENCVTMYSNSGFWNDINCGYPNAFICQRHNSSINATTVMPTMPSVPSGCKEGWNFYSNKCFKIFGFMEEERKNWQEARKACIGFGGNLVSIQNEKEQAFLTYHMKDSTFSAWTGLNDVNSEHTFLWTDGRGVHYTNWGKGYPGGRRSSLSYEDADCVVIIGGASNEAGKWMDDTCDSKRGYICQTRSDPSLTNPPATIQTDGFVKYGKSSYSLMRQKFQWHEAETYCKLHNSLIASILDPYSNAFAWLQMETSNERVWIALNSNLTDNQYTWTDKWRVRYTNWAADEPKLKSACVYLDLDGYWKTAHCNESFYFLCKRSDEIPATEPPQLPGRCPESDHTAWIPFHGHCYYIESSYTRNWGQASLECLRMGSSLVSIESAAESSFLSYRVEPLKSKTNFWIGLFRNVEGTWLWINNSPVSFVNWNTGDPSGERNDCVALHASSGFWSNIHCSSYKGYICKRPKIIDAKPTHELLTTKADTRKMDPSK
notes: Bought protein; also called recombinant MRC1/CD206; rMRC1/CD206

Tests used:
[1] = biological target: B1; test: microscale thermophoresis, label-free, recombinant CD206
Procedure: Specifically, two-fold serial dilutions of the peptides were prepared in PBS and incubated with the same volume of 250 nM recombinant human and mouse CD206 in PBS. After a 5 min incubation at room temperature (RT), measurements were carried out in standard capillaries using a Monolith NT. Labelfree instrument (Nanotemper Technologies) with 40% LED excitation power, 40% IR-laser power, and laser on and off times of 30 s and 5 s, respectively. KD values were calculated by fitting the T-Jump signal of the thermograph using MOAffinity analysis software (Nanotemper Technologies).

[2] = biological target: T1, Endogenous murine CD206 on M2-polarized …; test: cellular thermal shift assay (CETSA) on M2-polarized macrophages
Procedure: The target engagement of the peptides in macrophages was assessed using the cellular thermal shift assay (CETSA) following the Jafari et al. protocol with minor modifications. […] After treatment, cells were collected by centrifugation for 5 min at 300×g and re-suspended in 600 μL DMEM. […] Samples were centrifuged at 20,000×g for 20 min at 4° C., and the supernatant was subsequently analyzed by western blot using 12-230 kDa Peggy Sue separation module (ProteinSimple, Cat #, SM-S001) and Peggy Sue instrument (Protein Simple) with following settings: electrophoresis 250 volts for 45 min; blocking, 23 min; primary antibody, 30 min; secondary antibody, 30 min. Quantitative analysis of CD206 level was performed using anti-CD206 antibody at 1:70 concentration multiplexed with anti-SOD1 antibody at 1:300 dilution, as internal control for normalization, and Compass software (ProteinSimple, San Jose, Calif.).

[3] = biological target: the molecule itself; test: small-angle X-ray scattering (SAXS), self-association
Procedure: SAXS data was collected at the 12ID-B beamline of the Advanced Photon Source (APS), Argonne National Laboratory, Lemont, Ill. […] Concentration series measurements for CD206 in buffer containing 50 mM Hepes, 100 mM NaCl, 1 mM DTT were carried out to extrapolate the data to infinite dilution for removing the scattering contribution due to interparticle interactions (concentration effect). Thirty 2D-image frames were recorded for sample solution and their matching buffer using a flow cell, with the exposure time of 0.75-1 sec to minimize radiation damage and to yield optimal signal-to-noise ratio. The 2D images were reduced to 1D scattering profiles and averaged using the Matlab software package at the beamlines.
The buffer background subtraction and intensity extrapolation to infinite dilution were carried out using MatLab script developed by 12-ID-B beamline. The radius of gyration (Rg) was generated from Guinier plot in the range of qRg<1.3. For comparison, Rg was also calculated in real and reciprocal spaces using program GNOM (https://www.embl-hamburg.de/biosaxs/manuals/gnom.html). The pair-distance distribution function P(r) and maximum dimension (Dmax) were also calculated using GNOM. […] Based on the silico models of CD206 monomer derived from iTASSER, the fit of dimer of CD206 to SAXS experimental data were calculated using the program CORAL.

Kd [1]	binding result [2]	Binder	binding result [3]
85 µM	no binding (tested: 100 µM)	KARKAAKRAF (Designed as a control to test the impact of hydrophobicity on activity) [RP-426]	–
–	–	B1	binds
